Laboratory results published in patent US20160168251A1 (MorphoSys, published 2016).
Changes are numbered by the printed parent chain. Where two headings read alike, the source gives them in different places.

T1: human NPRA on HEK293 cells, without added ligand (human, UniProt P16066 33-1061)
T1 construct: a signal peptide is not delimited; also called HEK NPRA cells; HEK hNPRA cells
T1 sequence: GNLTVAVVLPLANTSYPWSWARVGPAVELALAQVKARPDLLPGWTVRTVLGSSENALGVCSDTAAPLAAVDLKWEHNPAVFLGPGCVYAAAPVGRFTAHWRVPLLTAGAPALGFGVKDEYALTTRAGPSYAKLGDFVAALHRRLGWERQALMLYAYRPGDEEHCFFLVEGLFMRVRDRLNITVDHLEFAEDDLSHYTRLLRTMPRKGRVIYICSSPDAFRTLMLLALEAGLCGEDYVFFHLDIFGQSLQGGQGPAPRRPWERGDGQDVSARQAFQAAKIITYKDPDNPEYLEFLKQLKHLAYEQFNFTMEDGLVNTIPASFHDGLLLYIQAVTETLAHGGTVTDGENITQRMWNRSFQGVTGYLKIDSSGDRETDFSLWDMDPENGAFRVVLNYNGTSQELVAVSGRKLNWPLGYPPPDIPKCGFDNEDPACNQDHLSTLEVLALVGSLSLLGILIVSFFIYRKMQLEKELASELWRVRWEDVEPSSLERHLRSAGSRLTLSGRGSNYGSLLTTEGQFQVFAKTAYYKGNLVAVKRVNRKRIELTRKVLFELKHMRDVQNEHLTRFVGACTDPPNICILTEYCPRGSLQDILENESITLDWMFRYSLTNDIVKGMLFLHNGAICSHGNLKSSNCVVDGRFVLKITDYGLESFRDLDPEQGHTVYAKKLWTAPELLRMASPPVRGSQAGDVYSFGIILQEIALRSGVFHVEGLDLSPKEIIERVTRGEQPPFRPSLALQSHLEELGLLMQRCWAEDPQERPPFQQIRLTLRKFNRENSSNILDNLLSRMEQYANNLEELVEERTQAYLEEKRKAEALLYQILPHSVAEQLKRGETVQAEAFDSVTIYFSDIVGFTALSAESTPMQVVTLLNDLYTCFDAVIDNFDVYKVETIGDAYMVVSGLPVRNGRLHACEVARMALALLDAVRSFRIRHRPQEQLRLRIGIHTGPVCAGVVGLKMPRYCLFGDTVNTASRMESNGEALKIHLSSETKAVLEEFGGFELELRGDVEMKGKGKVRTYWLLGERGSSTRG

T2: human NPRB on HEK293 cells, without added ligand (human, UniProt P20594 23-1047)
T2 construct: whole, on cells; also called HEK NPRB cells; natriuretic peptide receptor B
T2 sequence (looked up): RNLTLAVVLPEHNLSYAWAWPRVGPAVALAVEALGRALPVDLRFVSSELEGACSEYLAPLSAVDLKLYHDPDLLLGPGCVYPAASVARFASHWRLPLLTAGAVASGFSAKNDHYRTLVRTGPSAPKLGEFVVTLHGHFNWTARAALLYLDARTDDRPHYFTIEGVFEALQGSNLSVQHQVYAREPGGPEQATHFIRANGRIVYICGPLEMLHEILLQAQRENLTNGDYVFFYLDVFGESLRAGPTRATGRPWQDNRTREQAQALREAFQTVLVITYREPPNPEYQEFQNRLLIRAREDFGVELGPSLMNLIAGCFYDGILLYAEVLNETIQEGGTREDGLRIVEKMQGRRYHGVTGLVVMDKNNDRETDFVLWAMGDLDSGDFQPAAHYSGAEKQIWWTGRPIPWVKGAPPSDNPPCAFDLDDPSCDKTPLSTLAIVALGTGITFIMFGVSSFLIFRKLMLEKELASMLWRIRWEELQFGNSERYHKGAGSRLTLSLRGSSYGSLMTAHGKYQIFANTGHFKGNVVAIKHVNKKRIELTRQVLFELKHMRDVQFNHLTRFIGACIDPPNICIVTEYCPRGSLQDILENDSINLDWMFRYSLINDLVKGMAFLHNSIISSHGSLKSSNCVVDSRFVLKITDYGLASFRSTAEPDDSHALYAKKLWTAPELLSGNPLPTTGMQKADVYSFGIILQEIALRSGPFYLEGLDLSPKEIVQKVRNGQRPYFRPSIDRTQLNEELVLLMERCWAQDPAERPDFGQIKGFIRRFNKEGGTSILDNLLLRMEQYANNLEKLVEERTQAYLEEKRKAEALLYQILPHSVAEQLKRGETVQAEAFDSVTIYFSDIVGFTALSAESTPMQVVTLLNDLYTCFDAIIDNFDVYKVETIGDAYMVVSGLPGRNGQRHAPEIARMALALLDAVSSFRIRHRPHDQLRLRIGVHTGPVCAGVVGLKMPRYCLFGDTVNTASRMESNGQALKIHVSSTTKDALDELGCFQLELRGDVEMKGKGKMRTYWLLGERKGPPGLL

T3: human NPRA on HEK293 cells bound to ANP (human, UniProt P01160 124-151)
T3 construct: mature; Receptor-ligand complex on cells; also called HEK NPRA cells loaded with ANP; ANP-NPRA complex
T3 sequence: T1 sequence
T3 sequence (peptide): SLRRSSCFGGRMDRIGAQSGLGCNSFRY

B1: 5502 IgG4_Pro (antibody, V domains shown)
VH: QVQLQQSGPGLVKPSQTLSLTCAISGDSVSSRSASWSWIRQSPGRGLEWLGRIYYRSKWYNDYAVSVKSRITINPDTSKNQFSLQLNSVTPEDTAVYYCARMDVPSFRYFDVWGQGTLVTVSS
VL: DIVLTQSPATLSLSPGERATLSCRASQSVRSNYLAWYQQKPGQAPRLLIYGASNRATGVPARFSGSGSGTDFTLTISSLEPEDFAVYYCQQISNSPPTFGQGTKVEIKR
notes: Human IgG4_Pro
B2: 5592 IgG4_Pro (antibody, V domains shown)
VH: B1 VH with I53T, K58H, N61Y, D62E, V65Q
VL: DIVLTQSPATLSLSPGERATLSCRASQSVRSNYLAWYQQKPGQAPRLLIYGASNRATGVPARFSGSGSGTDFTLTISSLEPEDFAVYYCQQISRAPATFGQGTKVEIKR
B3: 5591 IgG4_Pro (antibody, V domains shown)
VH: B1 VH with I53T, K58H, N61Y, D62E, V65Q
VL: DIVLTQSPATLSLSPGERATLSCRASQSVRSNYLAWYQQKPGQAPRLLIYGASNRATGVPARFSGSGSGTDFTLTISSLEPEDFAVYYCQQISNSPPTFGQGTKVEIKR

How the values were obtained:
[1] = molecular target: T1, human NPRA on HEK293 cells, without …; assay: FACS, HEK NPRA cells without ligand
[2] = molecular target: T1, human NPRA on HEK293 cells, without …; assay: FACS, HEK NPRA cells without ligand; remark: listed apart in the source
Protocol: (§1) HEK NPRA cells are detached with Accutase (PAA Laboratories GmbH, Cat. No. L11-007, Austria), harvested by centrifugation (900 rpm, 4 minutes) and resuspended in FACS buffer (PBS/3% FCS/0.02% NaN3) to a final concentration of 10⁶ cells/ml. 100 μl of the cell suspension is transferred to each well of a 96 round bottom plate (TC Microwell 96U, Nunc). […] Cells are washed in 150 μl of FACS buffer, pelleted and resuspended in 50 μl of the solution containing the primary antibody comprising a BEL extract of Fabs, a diluted BEL extract or purified antibody diluted in FACS buffer and incubated on ice for 30 min. Cells are washed again in FACS buffer and resuspended in 50 μl of FACS buffer containing the secondary antibody (R-Phycoerythrin-conjugated Affipure F(ab′)₂ Fragment Goat Anti-Human IgG, Dianova) and incubated on ice for 45 min. Cells are washed twice with FACS buffer and resuspended in 200 μl of FACS buffer for analysis in the FACS Array (BD Biosciences).

[3] = molecular target: T2, human NPRB on HEK293 cells, without …; assay: FACS, HEK NPRB cells without ligand
Protocol: as §1

[4] = molecular target: T3, human NPRA on HEK293 cells bound to ANP; assay: KinExA whole cell binding, HEK NPRA cells with 1 nM ANP, against SPR on NPRA-Fc

Binder	binding result [1]	binding result [2]	binding result [3]	fold, apparent Kd on cells (KinExA) over Kd by surface plasmon resonance on NPRA-Fc [4] [fold]
B1	no binding (tested: 20 nM)			
B2		no binding (tested: 20 nM)	no binding (tested: 20 nM)	
B3		no binding (tested: 20 nM)	no binding (tested: 20 nM)	~20
